Data published in patent US20150344583A1 (Amgen, published 2015).

What was measured:
[1] = target: T1, clipped form of Sumo-huBCMA, SEQ ID NO:357 (human); test: SEC and LC/MS
T1 chain: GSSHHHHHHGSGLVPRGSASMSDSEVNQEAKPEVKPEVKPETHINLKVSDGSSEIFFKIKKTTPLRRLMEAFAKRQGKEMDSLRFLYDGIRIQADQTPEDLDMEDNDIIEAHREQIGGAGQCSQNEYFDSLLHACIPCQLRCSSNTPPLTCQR

[2] = target: T2, clipped form of Sumo-huBCMA, SEQ ID NO:355 (human); test: SEC of antibody and Sumo-BCMA mixtures
T2 chain: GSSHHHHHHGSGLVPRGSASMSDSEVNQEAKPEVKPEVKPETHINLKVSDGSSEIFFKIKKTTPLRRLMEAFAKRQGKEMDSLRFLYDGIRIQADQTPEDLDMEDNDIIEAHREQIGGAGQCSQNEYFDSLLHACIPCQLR

[3] = target: T3, clipped form of Sumo-huBCMA, SEQ ID NO:356 (human); test: SEC of antibody and Sumo-BCMA mixtures
T3 construct: the species in the SEC peak came from the Sumo fusion, so it may carry the tag
T3 chain: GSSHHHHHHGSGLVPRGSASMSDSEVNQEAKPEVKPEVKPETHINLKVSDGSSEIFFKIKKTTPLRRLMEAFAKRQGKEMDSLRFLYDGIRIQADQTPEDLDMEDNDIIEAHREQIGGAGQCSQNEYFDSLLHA

[4] = target: T4, clipped form of Sumo-huBCMA, SEQ ID NO:354 (human); test: SEC of antibody and Sumo-BCMA mixtures
T4 construct: also called peak A
T4 chain: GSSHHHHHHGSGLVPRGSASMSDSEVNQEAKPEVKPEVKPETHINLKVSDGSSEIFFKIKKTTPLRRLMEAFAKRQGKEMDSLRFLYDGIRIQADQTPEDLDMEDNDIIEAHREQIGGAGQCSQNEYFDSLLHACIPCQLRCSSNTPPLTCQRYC

[5] = target: T5, cynomolgus (Macaca fascicularis) BCMA on cells (cynomolgus (Macaca fascicularis), UniProt Q02223 1-184 (human entry)); test: summary sentence of Example 16; assay for cynomolgus BCMA not given there
T5 construct: also called cyno BCMA; cynomolgus BCMA
T5 sequence (Q02223 other isoform, or with tags, fused parts or gaps): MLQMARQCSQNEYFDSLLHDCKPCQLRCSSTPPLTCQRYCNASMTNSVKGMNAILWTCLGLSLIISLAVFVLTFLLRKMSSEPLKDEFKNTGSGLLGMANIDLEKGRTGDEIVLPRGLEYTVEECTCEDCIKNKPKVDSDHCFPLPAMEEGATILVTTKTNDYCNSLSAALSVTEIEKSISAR

Measured: binding result

B1: Ab-1 (2A1CV5) (antibody, human IgG1, lambda, V domains shown)
VH: EVQLVESGGGLVKPGGSLRLSCAASGFTFGDYALSWFRQAPGKGLEWVGVSRSKAYGGTTDYAASVKGRFTISRDDSKSTAYLQMNSLKTEDTAVYYCASSGYSSGWTPFDYWGQGTLVTVSS
VL: not shown
binds: all assays above
